Results as given in US20110045489A1, “Polymerases for Incorporating Modified Nucleotides” (NEW ENGLAND BIOLABS, INC., priority 2008, published 2011).

System: modified nucleotide
Assay: Screen of DNA polymerase mutants for modified nucleotide incorporation
Type: biochemical
Excerpt: In order to determine the extent of 3′-modified nucleotide incorporation by archaeon DNA polymerases, the titration assay described by Gardner and Jack (2002) was used. In this assay, the efficiency of incorporation of chain terminators was judged by the size of the reaction products in a polymerization reaction. As the efficiency of chain-terminator incorporation increased, the average reaction product size decreased because polymerization was more often halted by terminator addition. By comparing the amount of terminator required to give the same spectrum of reaction products, the relative efficiency of incorporation of the test compounds with the different polymerases was determined.
A complex library of 9° N DNA polymerase mutants was screened for enhanced incorporation of 3′-azido-ddCTP. Several classes of 9° N DNA polymerase mutants were identified with enhanced terminator incorporation. 9° N exo-L408S/Y409A/P410V (Therminator III™, NEB, Inc., Ipswich, Mass.) was purified and characterized in more detail. 9° N DNA polymerase single mutants P410V, L408S, and Y409A and double mutants L408S/P410V, L408S/Y409A, and Y409A/P410V were also purified for comparison. Purification and characterization of DNA polymerase mutants was as described in Gardner and Jack, Nucleic Acids Res. 27:2545-2553 (1999).
A library of 9° N DNA polymerase mutants was constructed by PCR amplification of the polymerase genes using gene-specific primers or codon optimization and gene synthesis Czar et al. Trends Biotechnol 27(2): 63-72 (2009)). The ability to incorporate 3′-modified nucleotide terminators was evaluated by the titration assay for chain terminator incorporation efficiency as described by Gardner and Jack (2002).
Furthermore, the same assay was used to measure 3′-amino-ddCTP incorporation by 9° N exo-L408S/Y409A/P410V (FIG. 3) and to measure rates of incorporation (FIG. 4). Examples of mutants that increased modified nucleotide incorporation by at least two-fold were: […]

increase of modified nucleotide incorporation	Molecule
at least two-fold	9° N D141A/E143A/N491V/Y494H: 9° N DNA polymerase mutant (protein, UniProt Q56366 1-775, looked up, variant D141A E143A N491V Y494H) DNA polymerase: MILDTDYITENGKPVIRVFKKENGEFKIEYDRTFEPYFYALLKDDSAIEDVKKVTAKRHGTVVKVKRAEKVQKKFLGRPIEVWKLYFNHPQDVPAIRDRIRAHPAVVDIYEYDIPFAKRYLIDKGLIPMEGDEELTMLAFAIATLYHEGEEFGTGPILMISYADGSEARVITWKKIDLPYVDVVSTEKEMIKRFLRVVREKDPDVLITYNGDNFDFAYLKKRCEELGIKFTLGRDGSEPKIQRMGDRFAVEVKGRIHFDLYPVIRRTINLPTYTLEAVYEAVFGKPKEKVYAEEIAQAWESGEGLERVARYSMEDAKVTYELGREFFPMEAQLSRLIGQSLWDVSRSSTGNLVEWFLLRKAYKRNELAPNKPDERELARRRGGYAGGYVKEPERGLWDNIVYLDFRSLYPSIIITHNVSPDTLNREGCKEYDVAPEVGHKFCKDFPGFIPSLLGDLLEERQKIKRKMKATVDPLEKKLLDYRQRAIKILAVSFHGYYGYAKARWYCKECAESVTAWGREYIEMVIRELEEKFGFKVLYADTDGLHATIPGADAETVKKKAKEFLKYINPKLPGLLELEYEGFYVRGFFVTKKKYAVIDEEGKITTRGLEIVRRDWSEIAKETQARVLEAILKHGDVEEAVRIVKEVTEKLSKYEVPPEKLVIHEQITRDLRDYKATGPHVAVAKRLAARGVKIRPGTVISYIVLKGSGRIGDRAIPADEFDPTKHRYDAEYYIENQVLPAVERILKAFGYRKEDLRYQKTKQVGLGAWLKVKGKK
at least two-fold	9° N D141A/E143A/R406V/L408R: 9° N DNA polymerase mutant (protein, UniProt Q56366 1-775, looked up, variant D141A E143A R406V L408R) DNA polymerase: MILDTDYITENGKPVIRVFKKENGEFKIEYDRTFEPYFYALLKDDSAIEDVKKVTAKRHGTVVKVKRAEKVQKKFLGRPIEVWKLYFNHPQDVPAIRDRIRAHPAVVDIYEYDIPFAKRYLIDKGLIPMEGDEELTMLAFAIATLYHEGEEFGTGPILMISYADGSEARVITWKKIDLPYVDVVSTEKEMIKRFLRVVREKDPDVLITYNGDNFDFAYLKKRCEELGIKFTLGRDGSEPKIQRMGDRFAVEVKGRIHFDLYPVIRRTINLPTYTLEAVYEAVFGKPKEKVYAEEIAQAWESGEGLERVARYSMEDAKVTYELGREFFPMEAQLSRLIGQSLWDVSRSSTGNLVEWFLLRKAYKRNELAPNKPDERELARRRGGYAGGYVKEPERGLWDNIVYLDFVSRYPSIIITHNVSPDTLNREGCKEYDVAPEVGHKFCKDFPGFIPSLLGDLLEERQKIKRKMKATVDPLEKKLLDYRQRAIKILANSFYGYYGYAKARWYCKECAESVTAWGREYIEMVIRELEEKFGFKVLYADTDGLHATIPGADAETVKKKAKEFLKYINPKLPGLLELEYEGFYVRGFFVTKKKYAVIDEEGKITTRGLEIVRRDWSEIAKETQARVLEAILKHGDVEEAVRIVKEVTEKLSKYEVPPEKLVIHEQITRDLRDYKATGPHVAVAKRLAARGVKIRPGTVISYIVLKGSGRIGDRAIPADEFDPTKHRYDAEYYIENQVLPAVERILKAFGYRKEDLRYQKTKQVGLGAWLKVKGKK
at least two-fold	9° N D141A/E143A/R406L/L408E: 9° N DNA polymerase mutant (protein, UniProt Q56366 1-775, looked up, variant D141A E143A R406L L408E) DNA polymerase: MILDTDYITENGKPVIRVFKKENGEFKIEYDRTFEPYFYALLKDDSAIEDVKKVTAKRHGTVVKVKRAEKVQKKFLGRPIEVWKLYFNHPQDVPAIRDRIRAHPAVVDIYEYDIPFAKRYLIDKGLIPMEGDEELTMLAFAIATLYHEGEEFGTGPILMISYADGSEARVITWKKIDLPYVDVVSTEKEMIKRFLRVVREKDPDVLITYNGDNFDFAYLKKRCEELGIKFTLGRDGSEPKIQRMGDRFAVEVKGRIHFDLYPVIRRTINLPTYTLEAVYEAVFGKPKEKVYAEEIAQAWESGEGLERVARYSMEDAKVTYELGREFFPMEAQLSRLIGQSLWDVSRSSTGNLVEWFLLRKAYKRNELAPNKPDERELARRRGGYAGGYVKEPERGLWDNIVYLDFLSEYPSIIITHNVSPDTLNREGCKEYDVAPEVGHKFCKDFPGFIPSLLGDLLEERQKIKRKMKATVDPLEKKLLDYRQRAIKILANSFYGYYGYAKARWYCKECAESVTAWGREYIEMVIRELEEKFGFKVLYADTDGLHATIPGADAETVKKKAKEFLKYINPKLPGLLELEYEGFYVRGFFVTKKKYAVIDEEGKITTRGLEIVRRDWSEIAKETQARVLEAILKHGDVEEAVRIVKEVTEKLSKYEVPPEKLVIHEQITRDLRDYKATGPHVAVAKRLAARGVKIRPGTVISYIVLKGSGRIGDRAIPADEFDPTKHRYDAEYYIENQVLPAVERILKAFGYRKEDLRYQKTKQVGLGAWLKVKGKK
at least two-fold	9° N D141A/E143A/R406T/L408R: 9° N DNA polymerase mutant (protein, UniProt Q56366 1-775, looked up, variant D141A E143A R406T L408R) DNA polymerase: MILDTDYITENGKPVIRVFKKENGEFKIEYDRTFEPYFYALLKDDSAIEDVKKVTAKRHGTVVKVKRAEKVQKKFLGRPIEVWKLYFNHPQDVPAIRDRIRAHPAVVDIYEYDIPFAKRYLIDKGLIPMEGDEELTMLAFAIATLYHEGEEFGTGPILMISYADGSEARVITWKKIDLPYVDVVSTEKEMIKRFLRVVREKDPDVLITYNGDNFDFAYLKKRCEELGIKFTLGRDGSEPKIQRMGDRFAVEVKGRIHFDLYPVIRRTINLPTYTLEAVYEAVFGKPKEKVYAEEIAQAWESGEGLERVARYSMEDAKVTYELGREFFPMEAQLSRLIGQSLWDVSRSSTGNLVEWFLLRKAYKRNELAPNKPDERELARRRGGYAGGYVKEPERGLWDNIVYLDFTSRYPSIIITHNVSPDTLNREGCKEYDVAPEVGHKFCKDFPGFIPSLLGDLLEERQKIKRKMKATVDPLEKKLLDYRQRAIKILANSFYGYYGYAKARWYCKECAESVTAWGREYIEMVIRELEEKFGFKVLYADTDGLHATIPGADAETVKKKAKEFLKYINPKLPGLLELEYEGFYVRGFFVTKKKYAVIDEEGKITTRGLEIVRRDWSEIAKETQARVLEAILKHGDVEEAVRIVKEVTEKLSKYEVPPEKLVIHEQITRDLRDYKATGPHVAVAKRLAARGVKIRPGTVISYIVLKGSGRIGDRAIPADEFDPTKHRYDAEYYIENQVLPAVERILKAFGYRKEDLRYQKTKQVGLGAWLKVKGKK
at least two-fold	9° N D141A/E143A/R406S/L408R: 9° N DNA polymerase mutant (protein, UniProt Q56366 1-775, looked up, variant D141A E143A R406S L408R) DNA polymerase: MILDTDYITENGKPVIRVFKKENGEFKIEYDRTFEPYFYALLKDDSAIEDVKKVTAKRHGTVVKVKRAEKVQKKFLGRPIEVWKLYFNHPQDVPAIRDRIRAHPAVVDIYEYDIPFAKRYLIDKGLIPMEGDEELTMLAFAIATLYHEGEEFGTGPILMISYADGSEARVITWKKIDLPYVDVVSTEKEMIKRFLRVVREKDPDVLITYNGDNFDFAYLKKRCEELGIKFTLGRDGSEPKIQRMGDRFAVEVKGRIHFDLYPVIRRTINLPTYTLEAVYEAVFGKPKEKVYAEEIAQAWESGEGLERVARYSMEDAKVTYELGREFFPMEAQLSRLIGQSLWDVSRSSTGNLVEWFLLRKAYKRNELAPNKPDERELARRRGGYAGGYVKEPERGLWDNIVYLDFSSRYPSIIITHNVSPDTLNREGCKEYDVAPEVGHKFCKDFPGFIPSLLGDLLEERQKIKRKMKATVDPLEKKLLDYRQRAIKILANSFYGYYGYAKARWYCKECAESVTAWGREYIEMVIRELEEKFGFKVLYADTDGLHATIPGADAETVKKKAKEFLKYINPKLPGLLELEYEGFYVRGFFVTKKKYAVIDEEGKITTRGLEIVRRDWSEIAKETQARVLEAILKHGDVEEAVRIVKEVTEKLSKYEVPPEKLVIHEQITRDLRDYKATGPHVAVAKRLAARGVKIRPGTVISYIVLKGSGRIGDRAIPADEFDPTKHRYDAEYYIENQVLPAVERILKAFGYRKEDLRYQKTKQVGLGAWLKVKGKK
at least two-fold	9° N D141A/E143A/R406T/L408E: 9° N DNA polymerase mutant (protein, UniProt Q56366 1-775, looked up, variant D141A E143A R406T L408E) DNA polymerase: MILDTDYITENGKPVIRVFKKENGEFKIEYDRTFEPYFYALLKDDSAIEDVKKVTAKRHGTVVKVKRAEKVQKKFLGRPIEVWKLYFNHPQDVPAIRDRIRAHPAVVDIYEYDIPFAKRYLIDKGLIPMEGDEELTMLAFAIATLYHEGEEFGTGPILMISYADGSEARVITWKKIDLPYVDVVSTEKEMIKRFLRVVREKDPDVLITYNGDNFDFAYLKKRCEELGIKFTLGRDGSEPKIQRMGDRFAVEVKGRIHFDLYPVIRRTINLPTYTLEAVYEAVFGKPKEKVYAEEIAQAWESGEGLERVARYSMEDAKVTYELGREFFPMEAQLSRLIGQSLWDVSRSSTGNLVEWFLLRKAYKRNELAPNKPDERELARRRGGYAGGYVKEPERGLWDNIVYLDFTSEYPSIIITHNVSPDTLNREGCKEYDVAPEVGHKFCKDFPGFIPSLLGDLLEERQKIKRKMKATVDPLEKKLLDYRQRAIKILANSFYGYYGYAKARWYCKECAESVTAWGREYIEMVIRELEEKFGFKVLYADTDGLHATIPGADAETVKKKAKEFLKYINPKLPGLLELEYEGFYVRGFFVTKKKYAVIDEEGKITTRGLEIVRRDWSEIAKETQARVLEAILKHGDVEEAVRIVKEVTEKLSKYEVPPEKLVIHEQITRDLRDYKATGPHVAVAKRLAARGVKIRPGTVISYIVLKGSGRIGDRAIPADEFDPTKHRYDAEYYIENQVLPAVERILKAFGYRKEDLRYQKTKQVGLGAWLKVKGKK
